Starred links: 1 amine or outer side, 2 acyl side, 3 side chain; linkers in the order of their positions; H or OH if unused. Non-standard residues stand in square brackets, D forms with d. Groups on a side chain read outwards from the residue. No end group written: not given here. *: point of attachment. γGlu = O=C(O)[C@H](CCC(=O)[*:2])N[*:1]; Stearoyl = CCCCCCCCCCCCCCCCCC(=O)*; αMeF = C[C@](N)(Cc1ccccc1)C(=O)O; αMeK = C[C@](N)(CCCCN)C(=O)O; αMeS = C[C@](N)(CO)C(=O)O; Aib = CC(C)(N)C(=O)O; Ahx = NCCCCCC(=O)O
T1: glucose-dependent insulinotropic peptide (gastric inhibitory polypeptide) receptor (GIPR) (human, UniProt P48546 22-466)
T1 sequence (looked up): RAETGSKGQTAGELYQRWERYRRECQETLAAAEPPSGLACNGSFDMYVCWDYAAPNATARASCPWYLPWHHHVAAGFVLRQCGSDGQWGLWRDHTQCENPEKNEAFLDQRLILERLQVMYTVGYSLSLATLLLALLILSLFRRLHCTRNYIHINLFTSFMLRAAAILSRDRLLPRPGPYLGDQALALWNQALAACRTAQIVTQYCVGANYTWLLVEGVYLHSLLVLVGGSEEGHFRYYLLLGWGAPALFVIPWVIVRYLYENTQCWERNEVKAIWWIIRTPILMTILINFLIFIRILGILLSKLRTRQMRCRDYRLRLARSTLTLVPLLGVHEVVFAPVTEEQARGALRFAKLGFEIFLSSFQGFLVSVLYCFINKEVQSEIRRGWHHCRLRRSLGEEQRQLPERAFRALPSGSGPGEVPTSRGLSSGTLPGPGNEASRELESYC


How the values were obtained:
Assay in all cases: cell-based or functional assay
[1] = molecular target: T1, glucose-dependent insulinotropic …
[2] = molecular target: glucagon receptor (GCGR) (human, UniProt P47871 26-477)
[3] = molecular target: GLP-1 receptor (GLP-1R) (human, UniProt P43220 24-463)

Sequence of glucagon receptor (GCGR) (P47871 26-477): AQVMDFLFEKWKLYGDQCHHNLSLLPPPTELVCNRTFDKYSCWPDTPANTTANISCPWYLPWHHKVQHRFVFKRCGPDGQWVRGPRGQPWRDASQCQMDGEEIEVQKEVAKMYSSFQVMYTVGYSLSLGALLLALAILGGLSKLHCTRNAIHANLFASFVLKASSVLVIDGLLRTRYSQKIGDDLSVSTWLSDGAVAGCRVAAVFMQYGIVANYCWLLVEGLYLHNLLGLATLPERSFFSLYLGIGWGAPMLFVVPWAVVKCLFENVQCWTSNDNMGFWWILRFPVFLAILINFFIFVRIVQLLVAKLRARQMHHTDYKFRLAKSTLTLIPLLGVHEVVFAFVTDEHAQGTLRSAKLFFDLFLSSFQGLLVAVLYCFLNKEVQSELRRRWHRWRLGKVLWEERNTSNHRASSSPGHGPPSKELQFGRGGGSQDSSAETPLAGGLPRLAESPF

Primary assay EC50 (cAMP), GIP-R, first run [1] [nM]	Primary assay EC50 (cAMP), GIP-R, second run [1] [nM]	Primary assay EC50 (cAMP), Gluc-R, first run [2] [nM]	Primary assay EC50 (cAMP), Gluc-R, second run [2] [nM]	Primary assay EC50 (cAMP), GLP-1R n1 [3] [nM]	Primary assay EC50 (cAMP), GLP-1R n2 [3] [nM]	Primary assay EC50 (cAMP), Mean pM GLP-1R [3] [pM]	Binder
26	26	26	26	0.047	0.012	29.5	H[Aib]EGS[αMeF]TSDV[αMeS]S[αMeF]LEGEAA[αMeK]E[αMeF]IA[αMeF]VVK([γGlu-γGlu-γGlu-Stearoyl])GG-NH2 (N-terminus assumed; SMILES CCCCCCCCCCCCCCCCCC(=O)N[C@@H](CCC(=O)N[C@@H](CCC(=O)N[C@@H](CCC(=O)NCCCC[C@H](NC(=O)[C@@H](NC(=O)[C@@H](NC(=O)[C@](C)(Cc1ccccc1)NC(=O)[C@H](C)NC(=O)[C@@H](NC(=O)[C@](C)(Cc1ccccc1)NC(=O)[C@H](CCC(=O)O)NC(=O)[C@](C)(CCCCN)NC(=O)[C@H](C)NC(=O)[C@H](C)NC(=O)[C@H](CCC(=O)O)NC(=O)CNC(=O)[C@H](CCC(=O)O)NC(=O)[C@H](CC(C)C)NC(=O)[C@](C)(Cc1ccccc1)NC(=O)[C@H](CO)NC(=O)[C@](C)(CO)NC(=O)[C@@H](NC(=O)[C@H](CC(=O)O)NC(=O)[C@H](CO)NC(=O)[C@@H](NC(=O)[C@](C)(Cc1ccccc1)NC(=O)[C@H](CO)NC(=O)CNC(=O)[C@H](CCC(=O)O)NC(=O)C(C)(C)NC(=O)[C@@H](N)Cc1c[nH]cn1)[C@@H](C)O)C(C)C)[C@@H](C)CC)C(C)C)C(C)C)C(=O)NCC(=O)NCC(N)=O)C(=O)O)C(=O)O)C(=O)O) [SEQ ID NO 184]
28	28	28	28	0.38	0.12	251	H[Aib]EGS[αMeF]TSDV[αMeS]S[αMeF]LEGEAA[αMeK]E[αMeF]IA[αMeF]VVK([Ahx-Stearoyl])GG-NH2 (N-terminus assumed; SMILES CCCCCCCCCCCCCCCCCC(=O)NCCCCCC(=O)NCCCC[C@H](NC(=O)[C@@H](NC(=O)[C@@H](NC(=O)[C@](C)(Cc1ccccc1)NC(=O)[C@H](C)NC(=O)[C@@H](NC(=O)[C@](C)(Cc1ccccc1)NC(=O)[C@H](CCC(=O)O)NC(=O)[C@](C)(CCCCN)NC(=O)[C@H](C)NC(=O)[C@H](C)NC(=O)[C@H](CCC(=O)O)NC(=O)CNC(=O)[C@H](CCC(=O)O)NC(=O)[C@H](CC(C)C)NC(=O)[C@](C)(Cc1ccccc1)NC(=O)[C@H](CO)NC(=O)[C@](C)(CO)NC(=O)[C@@H](NC(=O)[C@H](CC(=O)O)NC(=O)[C@H](CO)NC(=O)[C@@H](NC(=O)[C@](C)(Cc1ccccc1)NC(=O)[C@H](CO)NC(=O)CNC(=O)[C@H](CCC(=O)O)NC(=O)C(C)(C)NC(=O)[C@@H](N)Cc1c[nH]cn1)[C@@H](C)O)C(C)C)[C@@H](C)CC)C(C)C)C(C)C)C(=O)NCC(=O)NCC(N)=O) [SEQ ID NO 185]
